The target in this assay is PP1α catalytic subunit (New England BioLabs) (UniProt P62139 1-330). The experiment in a line: SPR. For orientation: SPR reads the build-up and loss of mass on a sensor chip optically.

Ends that are not written are not given here.

What is called Kd is the constant that tells how readily two partners part at equilibrium. High values mean weaker binding, low ones tighter binding.

Chain of PP1α catalytic subunit (New England BioLabs) (P62139 whole entry): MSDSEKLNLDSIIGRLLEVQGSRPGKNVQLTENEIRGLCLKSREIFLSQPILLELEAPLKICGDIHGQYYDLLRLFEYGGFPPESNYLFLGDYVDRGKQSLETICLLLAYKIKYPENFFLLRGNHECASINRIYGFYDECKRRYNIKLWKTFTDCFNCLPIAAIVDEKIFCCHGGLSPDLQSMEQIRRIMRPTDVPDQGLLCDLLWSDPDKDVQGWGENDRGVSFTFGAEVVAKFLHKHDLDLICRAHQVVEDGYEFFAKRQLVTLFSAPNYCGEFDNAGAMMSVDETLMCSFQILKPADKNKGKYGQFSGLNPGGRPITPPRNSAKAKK

AERQKEKASMLCAKRAKAAAKALKP (also: biotinylated, position not given here) [Biotinylated AKAP79 synthetic peptide, amino acids 25-49, mutant (AxxAxA)] came in with a Kd of 341 nM.

These data come from publication PMC3115558 (Biochemistry, 2011).
